Laboratory results reported in publication PMC12757795, “WRKY45 is a negative regulator of Botrytis cinerea resistance through the JA/ET signaling pathway in Arabidopsis”.

Biological target: GST-WRKY45 (UniProt Q9S763 1-147)
Assay: EMSA; Beyotime chemiluminescent EMSA kit binding buffer (composition, salt and pH not stated), room temperature, 20 min, 6% native PAGE; unlabeled competitor 5x and 50x or 50-100x (Methods)
Details: protein: recombinant; tags: GST; label: biotin (end); blunt

Sequence of GST-WRKY45 (Q9S763 whole entry): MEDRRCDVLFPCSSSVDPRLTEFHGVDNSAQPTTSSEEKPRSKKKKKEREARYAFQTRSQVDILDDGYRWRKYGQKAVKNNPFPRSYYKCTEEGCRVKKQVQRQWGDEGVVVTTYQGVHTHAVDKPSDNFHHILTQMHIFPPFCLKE

Binder | binding result
ORA59-W2 (dsDNA) DNA 1: TAATCGCATCGCATGTTTGACCCATTTAGCCGCATAT DNA 2: ATATGCGGCTAAATGGGTCAAACATGCGATGCGATTA | binds
ORA59-W6 (dsDNA) DNA 1: GAAACCGACGTTAGGTTTGACTATTTTATTTACAGTC DNA 2: GACTGTAAATAAAATAGTCAAACCTAACGTCGGTTTC | binds
ORA59-W1-M (dsDNA) DNA 1: CGATTTAGCCGCATGTTTTTCCTATTTTGCCCACATA DNA 2: TATGTGGGCAAAATAGGAAAAACATGCGGCTAAATCG | no binding
ORA59-W3 (dsDNA) DNA 1: CCATCTAACAACAAATTTGACCAAAAGTTTCCTTATT DNA 2: AATAAGGAAACTTTTGGTCAAATTTGTTGTTAGATGG | binds
